For four molecules, kon and stoichiometry N results are on record in article PMC3998375 (Structure (London, England : 1993), 2013).

Series [1] concerns the target murine B7-H3 ectodomain (mB7H3), wild type (mouse) (UniProt Q8VE98). In words: SEC. In general terms: SEC sorts molecules by how far they enter the pores of the column.
The series “SEC” deals with the molecule itself. Kind of series: SEC.

The kon is a measure of how fast the partners come together. The stoichiometry N is a count of units in the complex or per binding partner. In series [1], “murine B7-H3 ectodomain (mB7H3), wild type (from UniProt Q8VE98 34-247) (domain or fragment)” registered a kon of 0.000161 M⁻¹ s⁻¹ and a stoichiometry N of 2.

B1: murine B7-H3 ectodomain (mB7H3) I126T (domain or fragment, mouse, UniProt Q8VE98 34-247, looked up)
chain: SEDPVVALVDTDATLRCSFSPEPGFSLAQLNLIWQLTDTKQLVHSFTEGRDQGSAYSNRTALFPDLLVQGNASLRLQRVRVTDEGSYTCFVSTQDFDSAAVSLQVAAPYSKPSMTLEPNKDLRPGNMVTITCSSYQGYPEAEVFWKDGQGVPLTGNVTTSQMANERGLFDVHSVLRVVLGANGTYSCLVRNPVLQQDAHGSVTITGQPLTFPPE
Regarding B1, in “SEC”, the kon amounted to 4.1e-05 M⁻¹ s⁻¹.

B2: murine B7-H3 ectodomain (mB7H3) FG-loop chimera (I126Y/Q127G/D128G/F129A) (domain or fragment, mouse, UniProt Q8VE98 34-247, looked up)
chain: SEDPVVALVDTDATLRCSFSPEPGFSLAQLNLIWQLTDTKQLVHSFTEGRDQGSAYSNRTALFPDLLVQGNASLRLQRVRVTDEGSYTCFVSYGGADSAAVSLQVAAPYSKPSMTLEPNKDLRPGNMVTITCSSYQGYPEAEVFWKDGQGVPLTGNVTTSQMANERGLFDVHSVLRVVLGANGTYSCLVRNPVLQQDAHGSVTITGQPLTFPPE
Regarding B2, in “SEC”, the kon was determined as 8.3e-06 M⁻¹ s⁻¹.

B3: murine B7-H3 ectodomain (mB7H3) F129A (domain or fragment, mouse, UniProt Q8VE98 34-247, looked up)
chain: SEDPVVALVDTDATLRCSFSPEPGFSLAQLNLIWQLTDTKQLVHSFTEGRDQGSAYSNRTALFPDLLVQGNASLRLQRVRVTDEGSYTCFVSIQDADSAAVSLQVAAPYSKPSMTLEPNKDLRPGNMVTITCSSYQGYPEAEVFWKDGQGVPLTGNVTTSQMANERGLFDVHSVLRVVLGANGTYSCLVRNPVLQQDAHGSVTITGQPLTFPPE
With B3, the kon in “SEC” is 0.000164 M⁻¹ s⁻¹.
